These results are taken from patent US20240182596A1, “ANTI-NAPI2B ANTIBODIES AND ANTIBODY-DRUG-CONJUGATES BASED THEREON, THERAPEUTIC METHODS AND USES THEREOF” (Tubulis GmbH, priority 2022, published 2024).

For assay [1], the target named is recombinant human FcRn (FcγRn-SmBiT, Lumit assay) (human) (UniProt P55899). Briefly: Lumit FcRn Binding Immunoassay (Promega), competition with Tracer-LgBiT for FcRn-SmBiT, n=1.
Assay [2] concerns the target FcγRIIa (CD32) (H131). Kind of assay: Lumit FcγRIIa (H131) Binding Immunoassay (Promega), left panel FcγRIIa (CD32) (H131), competition with Tracer-LgBiT, n=1.
The target of assay [3] is FcγRIIIa (CD16) (V158) (Homo sapiens) (UniProt P08637). Kind of assay: Lumit FcγRIIIa (V158) Binding Immunoassay (Promega), left panel FcγRIIIa (CD16) (V158), competition with Tracer-LgBiT, n=1.
Sequence of FcγRIIIa (CD16) (V158) (Homo sapiens) (P08637 17-208 F176V limits assumed): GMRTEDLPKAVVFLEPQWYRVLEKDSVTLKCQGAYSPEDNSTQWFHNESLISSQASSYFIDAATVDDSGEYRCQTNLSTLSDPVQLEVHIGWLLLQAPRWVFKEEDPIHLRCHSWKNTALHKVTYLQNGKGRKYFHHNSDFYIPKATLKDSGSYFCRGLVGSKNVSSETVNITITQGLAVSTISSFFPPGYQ

Sequence of recombinant human FcRn (FcγRn-SmBiT, Lumit assay) (human) (P55899 24-297 limits assumed, chain 1 of 2): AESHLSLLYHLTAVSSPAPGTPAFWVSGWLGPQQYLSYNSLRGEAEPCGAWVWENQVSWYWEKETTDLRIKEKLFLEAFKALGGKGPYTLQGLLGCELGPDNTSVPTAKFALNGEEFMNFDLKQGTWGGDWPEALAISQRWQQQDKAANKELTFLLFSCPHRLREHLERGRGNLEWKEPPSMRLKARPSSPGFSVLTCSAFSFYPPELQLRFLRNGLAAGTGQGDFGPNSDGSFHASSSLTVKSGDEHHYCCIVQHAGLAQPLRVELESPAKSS
Sequence of recombinant human FcRn (FcγRn-SmBiT, Lumit assay) (human) (chain, as listed by the source limits assumed, chain 2 of 2): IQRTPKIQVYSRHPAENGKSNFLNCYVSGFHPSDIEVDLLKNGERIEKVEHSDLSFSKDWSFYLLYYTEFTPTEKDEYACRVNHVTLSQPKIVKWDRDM
Sequence of FcγRIIa (CD32) (H131) (chain, as listed by the source limits assumed): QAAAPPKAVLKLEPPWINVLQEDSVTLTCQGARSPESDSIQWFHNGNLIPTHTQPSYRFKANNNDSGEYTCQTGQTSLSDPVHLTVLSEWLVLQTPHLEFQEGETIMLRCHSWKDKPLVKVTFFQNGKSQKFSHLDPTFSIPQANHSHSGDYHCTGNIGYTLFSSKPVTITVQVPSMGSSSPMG

As to “IgG1 positive control (standard of the Lumit FcγR Binding Immunoassays) (antibody)”, the IC50 (read off the curve) in assay [1] worked out at 2 µg/mL; in assay [2], 1 µg/mL; in assay [3], 2 µg/mL.
